Numbered stars: 1 amine (or outer) side, 2 acyl side, 3 side chain; on linkers, the order of the positions; unused ones are H or OH. Square brackets hold non-standard residues; d marks the D form. Side chains are listed from the residue outwards. Ends that are not written are not given here. * marks the point of attachment. C20 diacid = O=C(O)CCCCCCCCCCCCCCCCCCC(=O)*; γGlu = O=C(O)[C@H](CCC(=O)[*:2])N[*:1]; AEEA = NCCOCCOCC(=O)O; Aib = CC(C)(N)C(=O)O
T1: human GIP receptor (human, UniProt P48546 22-466)
T1 sequence (looked up): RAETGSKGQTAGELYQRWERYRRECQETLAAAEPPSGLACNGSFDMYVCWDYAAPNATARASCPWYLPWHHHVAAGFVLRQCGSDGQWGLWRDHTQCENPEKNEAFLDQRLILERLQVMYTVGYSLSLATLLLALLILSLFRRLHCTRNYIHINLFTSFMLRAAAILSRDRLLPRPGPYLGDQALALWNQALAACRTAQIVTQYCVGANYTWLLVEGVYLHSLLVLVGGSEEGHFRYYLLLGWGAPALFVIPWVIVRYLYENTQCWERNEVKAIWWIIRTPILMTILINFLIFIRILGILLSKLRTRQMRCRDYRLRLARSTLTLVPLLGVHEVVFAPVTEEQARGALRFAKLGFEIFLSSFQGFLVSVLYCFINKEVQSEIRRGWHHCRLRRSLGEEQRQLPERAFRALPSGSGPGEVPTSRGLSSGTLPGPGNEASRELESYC

B1: Example 35 (peptide)
peptide: Y[Aib]EGTFTSDYSILLDKIAQ[Aib]AFIEYK([AEEA-AEEA-γGlu-C20 diacid])IEGGPSSGAPPPS-NH2
modifications: N-terminus assumed
SMILES: CC[C@H](C)[C@H](NC(=O)[C@H](CCCCN)NC(=O)[C@H](CC(=O)O)NC(=O)[C@H](CC(C)C)NC(=O)[C@H](CC(C)C)NC(=O)[C@@H](NC(=O)[C@H](CO)NC(=O)[C@H](Cc1ccc(O)cc1)NC(=O)[C@H](CC(=O)O)NC(=O)[C@H](CO)NC(=O)[C@@H](NC(=O)[C@H](Cc1ccccc1)NC(=O)[C@@H](NC(=O)CNC(=O)[C@H](CCC(=O)O)NC(=O)C(C)(C)NC(=O)[C@@H](N)Cc1ccc(O)cc1)[C@@H](C)O)[C@@H](C)O)[C@@H](C)CC)C(=O)N[C@@H](C)C(=O)N[C@@H](CCC(N)=O)C(=O)NC(C)(C)C(=O)N[C@@H](C)C(=O)N[C@@H](Cc1ccccc1)C(=O)N[C@H](C(=O)N[C@@H](CCC(=O)O)C(=O)N[C@@H](Cc1ccc(O)cc1)C(=O)N[C@@H](CCCCNC(=O)COCCOCCNC(=O)COCCOCCNC(=O)CC[C@H](NC(=O)CCCCCCCCCCCCCCCCCCC(=O)O)C(=O)O)C(=O)N[C@H](C(=O)N[C@@H](CCC(=O)O)C(=O)NCC(=O)NCC(=O)N1CCC[C@H]1C(=O)N[C@@H](CO)C(=O)N[C@@H](CO)C(=O)NCC(=O)N[C@@H](C)C(=O)N1CCC[C@H]1C(=O)N1CCC[C@H]1C(=O)N1CCC[C@H]1C(=O)N[C@@H](CO)C(N)=O)[C@@H](C)CC)[C@@H](C)CC
B2: Example 36 (peptide)
peptide: Y[Aib]EGTFTSDYSILLDKIAQ[Aib]AFIEYLK([AEEA-AEEA-γGlu-C20 diacid])EGGPSSGAPPPS-NH2
modifications: N-terminus assumed
SMILES: CC[C@H](C)[C@H](NC(=O)[C@H](CCCCN)NC(=O)[C@H](CC(=O)O)NC(=O)[C@H](CC(C)C)NC(=O)[C@H](CC(C)C)NC(=O)[C@@H](NC(=O)[C@H](CO)NC(=O)[C@H](Cc1ccc(O)cc1)NC(=O)[C@H](CC(=O)O)NC(=O)[C@H](CO)NC(=O)[C@@H](NC(=O)[C@H](Cc1ccccc1)NC(=O)[C@@H](NC(=O)CNC(=O)[C@H](CCC(=O)O)NC(=O)C(C)(C)NC(=O)[C@@H](N)Cc1ccc(O)cc1)[C@@H](C)O)[C@@H](C)O)[C@@H](C)CC)C(=O)N[C@@H](C)C(=O)N[C@@H](CCC(N)=O)C(=O)NC(C)(C)C(=O)N[C@@H](C)C(=O)N[C@@H](Cc1ccccc1)C(=O)N[C@H](C(=O)N[C@@H](CCC(=O)O)C(=O)N[C@@H](Cc1ccc(O)cc1)C(=O)N[C@@H](CC(C)C)C(=O)N[C@@H](CCCCNC(=O)COCCOCCNC(=O)COCCOCCNC(=O)CC[C@H](NC(=O)CCCCCCCCCCCCCCCCCCC(=O)O)C(=O)O)C(=O)N[C@@H](CCC(=O)O)C(=O)NCC(=O)NCC(=O)N1CCC[C@H]1C(=O)N[C@@H](CO)C(=O)N[C@@H](CO)C(=O)NCC(=O)N[C@@H](C)C(=O)N1CCC[C@H]1C(=O)N1CCC[C@H]1C(=O)N1CCC[C@H]1C(=O)N[C@@H](CO)C(N)=O)[C@@H](C)CC
B3: Example 37 (peptide)
peptide: Y[Aib]EGTFTSDYSILLDKIAQ[Aib]AFIEYLIK([AEEA-AEEA-γGlu-C20 diacid])GGPSSGAPPPS-NH2
modifications: N-terminus assumed
SMILES: CC[C@H](C)[C@H](NC(=O)[C@H](CCCCN)NC(=O)[C@H](CC(=O)O)NC(=O)[C@H](CC(C)C)NC(=O)[C@H](CC(C)C)NC(=O)[C@@H](NC(=O)[C@H](CO)NC(=O)[C@H](Cc1ccc(O)cc1)NC(=O)[C@H](CC(=O)O)NC(=O)[C@H](CO)NC(=O)[C@@H](NC(=O)[C@H](Cc1ccccc1)NC(=O)[C@@H](NC(=O)CNC(=O)[C@H](CCC(=O)O)NC(=O)C(C)(C)NC(=O)[C@@H](N)Cc1ccc(O)cc1)[C@@H](C)O)[C@@H](C)O)[C@@H](C)CC)C(=O)N[C@@H](C)C(=O)N[C@@H](CCC(N)=O)C(=O)NC(C)(C)C(=O)N[C@@H](C)C(=O)N[C@@H](Cc1ccccc1)C(=O)N[C@H](C(=O)N[C@@H](CCC(=O)O)C(=O)N[C@@H](Cc1ccc(O)cc1)C(=O)N[C@@H](CC(C)C)C(=O)N[C@H](C(=O)N[C@@H](CCCCNC(=O)COCCOCCNC(=O)COCCOCCNC(=O)CC[C@H](NC(=O)CCCCCCCCCCCCCCCCCCC(=O)O)C(=O)O)C(=O)NCC(=O)NCC(=O)N1CCC[C@H]1C(=O)N[C@@H](CO)C(=O)N[C@@H](CO)C(=O)NCC(=O)N[C@@H](C)C(=O)N1CCC[C@H]1C(=O)N1CCC[C@H]1C(=O)N1CCC[C@H]1C(=O)N[C@@H](CO)C(N)=O)[C@@H](C)CC)[C@@H](C)CC
B4: Example 38 (peptide)
peptide: Y[Aib]EGTFTSDYSILLDKIAQ[Aib]AFIEYLIEK([AEEA-AEEA-γGlu-C20 diacid])GPSSGAPPPS-NH2
modifications: N-terminus assumed
SMILES: CC[C@H](C)[C@H](NC(=O)[C@H](CCCCN)NC(=O)[C@H](CC(=O)O)NC(=O)[C@H](CC(C)C)NC(=O)[C@H](CC(C)C)NC(=O)[C@@H](NC(=O)[C@H](CO)NC(=O)[C@H](Cc1ccc(O)cc1)NC(=O)[C@H](CC(=O)O)NC(=O)[C@H](CO)NC(=O)[C@@H](NC(=O)[C@H](Cc1ccccc1)NC(=O)[C@@H](NC(=O)CNC(=O)[C@H](CCC(=O)O)NC(=O)C(C)(C)NC(=O)[C@@H](N)Cc1ccc(O)cc1)[C@@H](C)O)[C@@H](C)O)[C@@H](C)CC)C(=O)N[C@@H](C)C(=O)N[C@@H](CCC(N)=O)C(=O)NC(C)(C)C(=O)N[C@@H](C)C(=O)N[C@@H](Cc1ccccc1)C(=O)N[C@H](C(=O)N[C@@H](CCC(=O)O)C(=O)N[C@@H](Cc1ccc(O)cc1)C(=O)N[C@@H](CC(C)C)C(=O)N[C@H](C(=O)N[C@@H](CCC(=O)O)C(=O)N[C@@H](CCCCNC(=O)COCCOCCNC(=O)COCCOCCNC(=O)CC[C@H](NC(=O)CCCCCCCCCCCCCCCCCCC(=O)O)C(=O)O)C(=O)NCC(=O)N1CCC[C@H]1C(=O)N[C@@H](CO)C(=O)N[C@@H](CO)C(=O)NCC(=O)N[C@@H](C)C(=O)N1CCC[C@H]1C(=O)N1CCC[C@H]1C(=O)N1CCC[C@H]1C(=O)N[C@@H](CO)C(N)=O)[C@@H](C)CC)[C@@H](C)CC
B5: Example 39 (peptide)
peptide: Y[Aib]EGTFTSDYSILLDKIAQ[Aib]AFIEYLIEGK([AEEA-AEEA-γGlu-C20 diacid])PSSGAPPPS-NH2
modifications: N-terminus assumed
SMILES: CC[C@H](C)[C@H](NC(=O)[C@H](CCCCN)NC(=O)[C@H](CC(=O)O)NC(=O)[C@H](CC(C)C)NC(=O)[C@H](CC(C)C)NC(=O)[C@@H](NC(=O)[C@H](CO)NC(=O)[C@H](Cc1ccc(O)cc1)NC(=O)[C@H](CC(=O)O)NC(=O)[C@H](CO)NC(=O)[C@@H](NC(=O)[C@H](Cc1ccccc1)NC(=O)[C@@H](NC(=O)CNC(=O)[C@H](CCC(=O)O)NC(=O)C(C)(C)NC(=O)[C@@H](N)Cc1ccc(O)cc1)[C@@H](C)O)[C@@H](C)O)[C@@H](C)CC)C(=O)N[C@@H](C)C(=O)N[C@@H](CCC(N)=O)C(=O)NC(C)(C)C(=O)N[C@@H](C)C(=O)N[C@@H](Cc1ccccc1)C(=O)N[C@H](C(=O)N[C@@H](CCC(=O)O)C(=O)N[C@@H](Cc1ccc(O)cc1)C(=O)N[C@@H](CC(C)C)C(=O)N[C@H](C(=O)N[C@@H](CCC(=O)O)C(=O)NCC(=O)N[C@@H](CCCCNC(=O)COCCOCCNC(=O)COCCOCCNC(=O)CC[C@H](NC(=O)CCCCCCCCCCCCCCCCCCC(=O)O)C(=O)O)C(=O)N1CCC[C@H]1C(=O)N[C@@H](CO)C(=O)N[C@@H](CO)C(=O)NCC(=O)N[C@@H](C)C(=O)N1CCC[C@H]1C(=O)N1CCC[C@H]1C(=O)N1CCC[C@H]1C(=O)N[C@@H](CO)C(N)=O)[C@@H](C)CC)[C@@H](C)CC

These binders were tested against T1, human GIP receptor (assay: cell-based or functional assay).

Going from Y[Aib]EGTFTSDYSILLDKIAQ[Aib]AFK([AEEA-AEEA-γGlu-C20 diacid])EYLIEGGPSSGAPPPS-NH2 [Example 33] to Y[Aib]EGTFTSDYSILLDKIAQ[Aib]AFIKYLIEGGPSSGAPPPS-NH2 (not fully specified (residue 24)) [Example 34], the “hGIPR cAMP EC50 ratio” value rises from 0.00222 to 0.393.

First: B1
Second: B2
The “hGIPR cAMP EC50 ratio” value of the first is higher: 1.58 for the first, 0.458 for the second.

Compared with B3, B4 is higher in “hGIPR cAMP EC50 ratio” value: 0.532 for the first, 0.967 for the second.

With B5 the “hGIPR cAMP EC50 ratio” value was 1.07.

Going from Y[Aib]EGTFTSDYSILLDKIAQ[Aib]AFK([AEEA-AEEA-γGlu-C20 diacid])EYLIEGGPSSGAPPPS-NH2 [Example 33] to Y[Aib]EGTFTSDYSILLDKIAQ[Aib]AFIKYLIEGGPSSGAPPPS-NH2 (not fully specified (residue 24)) [Example 34], the “hGIPR cAMP Rel EC50” value falls from 63.3 nM to 0.36 nM (180-fold).

First: B1
Second: B2
The “hGIPR cAMP Rel EC50” value of the first is 3.4-fold lower: 0.0905 nM for the first, 0.309 nM for the second.

First: B3
Second: B4
The “hGIPR cAMP Rel EC50” value of the first is 1.8-fold higher: 0.269 nM for the first, 0.147 nM for the second.

In the case of B5, the “hGIPR cAMP Rel EC50” value is reported as 0.133 nM.

What follows are binders tested against human GLP-1 receptor (human, UniProt P43220 24-463) (assay: cell-based or functional assay).

Going from Y[Aib]EGTFTSDYSILLDKIAQ[Aib]AFK([AEEA-AEEA-γGlu-C20 diacid])EYLIEGGPSSGAPPPS-NH2 [Example 33] to Y[Aib]EGTFTSDYSILLDKIAQ[Aib]AFIKYLIEGGPSSGAPPPS-NH2 (not fully specified (residue 24)) [Example 34], the “hGLP1R cAMP EC50 ratio” value rises from 0.000256 to 0.0392.

First: B1
Second: B2
The “hGLP1R cAMP EC50 ratio” value of the first is lower: 0.00728 for the first, 0.0268 for the second.

First: B3
Second: B4
The “hGLP1R cAMP EC50 ratio” value of the first is higher: 0.0533 for the first, 0.0217 for the second.

B5 was tested, and the “hGLP1R cAMP EC50 ratio” value was 0.0323.

First: Y[Aib]EGTFTSDYSILLDKIAQ[Aib]AFK([AEEA-AEEA-γGlu-C20 diacid])EYLIEGGPSSGAPPPS-NH2 [Example 33]
Second: Y[Aib]EGTFTSDYSILLDKIAQ[Aib]AFIKYLIEGGPSSGAPPPS-NH2 (not fully specified (residue 24)) [Example 34]
The “hGLP1R cAMP Rel EC50” value of the first is 160-fold higher: 251 nM for the first, 1.56 nM for the second.

Compared with B1, B2 is 3.7-fold lower in “hGLP1R cAMP Rel EC50” value: 8.38 nM for the first, 2.29 nM for the second.

First: B3
Second: B4
The “hGLP1R cAMP Rel EC50” value of the first is 2.5-fold lower: 1.15 nM for the first, 2.82 nM for the second.

With B5 the “hGLP1R cAMP Rel EC50” value was 1.92 nM.

Reference: patent US20220048967A1 (published 2022)
